From patent US20180044415A1 (AbbVie / Abbott, published 2018) come the findings set out here.

T1: human DLL3 (immobilized human DLL3 or h293-hDLL3 cells) (human, UniProt Q9NYJ7 27-492, limits assumed)
T1 construct: the sentence says 'immobilized human DLL3 or h293-hDLL3 cells'
T1 sequence: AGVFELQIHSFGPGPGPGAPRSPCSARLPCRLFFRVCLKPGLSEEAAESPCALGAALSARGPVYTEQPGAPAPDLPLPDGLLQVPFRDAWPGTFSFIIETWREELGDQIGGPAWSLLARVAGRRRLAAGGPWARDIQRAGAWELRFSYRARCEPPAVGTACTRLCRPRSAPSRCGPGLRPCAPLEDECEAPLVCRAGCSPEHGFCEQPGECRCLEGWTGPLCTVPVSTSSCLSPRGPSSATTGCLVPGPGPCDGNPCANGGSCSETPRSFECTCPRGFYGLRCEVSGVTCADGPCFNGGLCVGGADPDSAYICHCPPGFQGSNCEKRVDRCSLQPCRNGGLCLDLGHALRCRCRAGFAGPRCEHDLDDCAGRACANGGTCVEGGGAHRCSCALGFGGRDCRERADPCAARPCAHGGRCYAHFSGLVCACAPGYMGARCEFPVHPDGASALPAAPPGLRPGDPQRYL

B1: SC16.65 (antibody, V domains shown)
VH: QVTLKESGPGILQPSQTLSLTCSFSGFSLSTSGMGVGWIRQPSGKGLEWLALIWWDDVKRYNPALKSRLTISKDASSSQVFLKIASVDTADTATYYCARIASYDYDVVYAMDYWGQGTSVSVSS
VL: QIVLTQSPALMSASPGEKVTMTCSVTSSVSYMYWYQQKPRSSPKPWIYLTSNLASGVPARFSGSGSGTSYSLTISSVEAEDAATYYCQQWRNNPFTFGSGTKVEIK
notes: murine mAb; variable regions only
B2: SC16.52 (antibody, V domains shown)
VH: QVQLKESGPGLVAPSQSLSITCAVSGFSLTSFAIHWFRKPPGKGLEWLGVIWTGGTTNYNSALMSRLSISKDNSKSQVFLKMNSLQTDDTAMYYCARDDYDNNYAMDYWGQGTSVTVSS
VL: DIQMIQSPSSMFASLGDRVSLSCRASQGIRGTLDWYQQKPNGTIKLLIYSTSNLNSGVPSRFSGSGSGSDYSLTISSLESEDFADYYCLQRNAYPLTFGAGTKLELK
notes: as for B1
B3: SC16.61 (antibody, V domains shown)
VH: EVLLQRSGPDLVKPGASVTIPCKASGYTFTDYNMDWVKQSHGKSLEWIGNINTYNGGTIYNQKFKGKATLTVDKPSSTAYMELRSLTSEDTAVYYCARRLRYGGHYFDYWGQGTALTVSS
VL: DIVMTQSTSSLAMSVGQKVTMSCKSSQSLLNSSNQKNYLAWYQQEPGQSPKLLVSFASTRESGVPDRFTGSGSGTDFTLTISGVQAEDLAVYYCQQHYSIPLTFGAGTKLELK
notes: as for B1
B4: SC16.63 (antibody, V domains shown)
VH: QVQLQQSGTELLRPGASVKISCKATGYTFSSYWMEWVKQRPGHGLEWIGEILPGSGTTQYNEKFKGKATFTADTSSNTAYMHLSSLTSEDSAVYYCARGTNSLWGQGTLVTVSA
VL: QIVLTQSPAIMSASPGEKVTMTCSASSSVSYMYWYQQKSGTSPKRWIYDTSKLASGVPARFSGSGSGTSYSLTISSMEAEDAATYYCQQWSSNPYTFGGGTKLEIK
notes: as for B1
B5: SC16.57 (antibody, V domains shown)
VH: EVKLVESGGDLVKPGGSLKLSCAASGFAFSSYDMSWVRQTPEKRLEWVATISSGGSYTYYPDSVKGRFTISRDNVRDTLYLQMSSLRSEDTALYYCARQAIGTYFDYWGQGTTLTVSS
VL: DIVMTQSHKFMSISVGDRVSITCKASQDVSIFVAWYQQKPGQSPKLLIYSASYRYTGVPDRFTGSGSGTDFIFTISSVQAEDLAVYYCQQHYGTPFTFGSGTKLKIR
notes: as for B1
B6: SC16.58 (antibody, V domains shown)
VH: DVQLVESGGGLVQPGGSRKLSCAASGFTFSSFGMHWVRQAPEKGLEWVAYISSGSSNIYYADTVKGRFTISRDNPKNTLFLQMTSLRSEDTAMYYCARGYYGNYDAMDYWGQGTSVTVSS
VL: DIQMTQSPASLSSSVGETVTITCRASENIYSYLAWYQQKQGKSPQLLVYNAKTLAEGVPSRFSGSGSGTQFSLKINSLQPEDFGTYYCQHHYDSPLTFGAGTKLELR
notes: as for B1
B7: SC16.55 (antibody, V domains shown)
VH: EVQLVESGGGLVQPKGSLKLSCAVSAFTFTTYAMNWVRQAPGKGLEWVARIRNKSNNYATYYADSVKDRFTISRDDSQSMLYLQMNNLKIEDTAMYYCVFYYDYVYWGQGTLVTVSA
VL: DIKMTQSPSSMYASLGERVTITCKASQDINSYLNWFQQKPGKSPKTLIYRANRLVDGVPSRFSGSGSGQDYSLTISSLEYEDMGIYYCLQYDEFPYTFGGGTKLEIK
notes: as for B1
B8: SC16.62 (antibody, V domains shown)
VH: EVMLVESGGDLVKPGGSLKLSCAASGFTFSSYAMSWVRQTPEKRLEWVAYISGGGDHIYYPDSVRGRFTISRDNAKDTLYLQMSSLRSEDTALYDCARVRDWYFDVWGAGTTVTVSS
VL: DIKMTQSPSSMYASLGERVTITCKASQDINSFLSWFQRKPGKSPKTLIYRANRLVDGVPSRFTGSGSGQEFSLTISSLEYEDLGIYYCLQYDEFPYTFGGGTKLEIK
notes: as for B1

The test has as its target T1, human DLL3 (immobilized human DLL3 or …). Put plainly: hybridoma screening on immobilized human DLL3 or on h293-hDLL3 cells.
For B1, the binding result is reported as “binds”.
The entry for B2 is “binds”; for B3 it is “binds”; for B4 it is “binds”.
Take B5: the binding result is “binds”.
Consider B6, for which the binding result is “binds”.
Take B7: the binding result is “binds”.
The entry for B8 is “binds”.
